Experimental data published in the supplement of paper PMC9170038.

Test system: MS2 coat protein
Test: apparent KD of MS2 coat protein; designed switch direction (-1 OFF switch, 1 ON switch): 1; higher = weaker reporter binding
Method in brief: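 Stalled E. coli RNA polymerase transcribed designed RNA switches on Illumina chips, which were then titrated with SNAP-549-labelled MS2 coat protein, doubling from 0.7 or 1.5 nM to 3 µM. Steps lasted from 0.8–1.5 h at the lowest concentration to 10–20 min at the highest. The apparent KD is each design's median over clusters of curve-fitted normalised fluorescence.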

[1] = input ligand: microRNA oligo, concentration not stated
[2] = Eterna round: R95, input ligand: FMN 200 uM
[3] = Eterna round: R95, input ligand: microRNA oligo, concentration not stated
[4] = Eterna round: R95, input ligand: none

Sequence | apparent KD of MS2 coat protein (input ligand: FMN 200 uM) [nM] | apparent KD of MS2 coat protein [1] [nM] | apparent KD of MS2 coat protein (input ligand: none) [nM] | apparent KD of MS2 coat protein [2] [nM] | apparent KD of MS2 coat protein [3] [nM] | apparent KD of MS2 coat protein [4] [nM]
AGACACAUGAGGAUCACCCAUGUUACGAGCUUAGCUCGGACACAGGAUAUCCGGUCCUAGAGACCGGAGAAGGGUGCCUGAUAA [Zara MOD3] (Eterna round: R96, puzzle: Same State NG 3) | 568 | 678 | 765 |  |  | 
AGACAUGAGGAUCACCCAUGUAUACACUGUAUCAGUGUAACAUAGGAUAUCCACCGCCAUGCUGUGGAGAAGGAUGAAACGGGC [Matearen] (Eterna round: R96, puzzle: Same State NG 3) | 175 | 111 | 99.5 |  |  | 
AGAGAGGAAGCUGAGGAUAUCGUAAGGAGGACAUGAGGAUCACCCAUGUGUGUGGAAUUGGAGGACGAGAAGGCAGAGGAGUGGG [JR_SS2_Sub055] (puzzle: Same State 2) |  |  |  | 33 | 35.2 | 34.6
AGAGCCGGCACUGAGGAUAUUCAUAUUAAAACAUGAGGAUCACCCAUGUAGGCCAGAAGGCCUUGGGAGAAGGCAGGUCGGCUCA [Mat - Same State 2 - Mod of UCT - D58] (puzzle: Same State 2) |  |  |  | 25.2 | 212 | 484
AGAUCAUGACGAGGAUAUGGUACAUGAGGAUCACCCAUGUAUGUACCACGACGGAAACGUCGAAUCCAGAAGGCGUCGUGGUCA [Mat - Same State NG 2 - JL mod - D22] (Eterna round: R96, puzzle: Same State NG 2) | 27.7 | 115 | 167 |  |  | 
AGCAAAAUAAGCAAGGAUAUGUAAUUUGGCACAUGAGGAUCACCCAUGUCAAUCCAUUUUUUUGAACAGAAGGUGCAUUUUUUUU [ak first solve] (puzzle: Same State 2) |  |  |  |  | 36.4 | 
AGCAUACAUGAGGAUCACCCAUGUCAACGUAGUCGAGGAUAUGGGCAGCCGUGAGGCGAACCAGAAGGCGAAUUGA [Mat - Same State 1 - Mod of JL - D3] (puzzle: Same State 1) |  |  |  | 23.7 | 34.6 | 38.9
AGCCGAGACUGAGGAUAUUUUAAUCUACAUGAGGAUCACCCAUGUAACAACACGUGGUAGUGAUAGAAGAAGGCGGCUCGGCGC [Omei SS(NG)2 Cv1] (Eterna round: R96, puzzle: Same State NG 2) | 176 | 162 | 386 |  |  | 
AGCGUCCACACAGGAUAUCACCUGCACUACAGGUGAGAAGGGUGACCGGUGCGCAAUAACGACAUGAGGAUCACCCAUGUAAAA [Enraquleer] (Eterna round: R96, puzzle: Same State NG 1) | 334 | 93.2 | 384 |  |  | 
AGCUAGUACCGAGGAUAUACGUACAUGAGGAUCACCCAUGUAUACAUGGUUUAAUGAAACUACAUGUAGAAGGCGGUACUAGCA [Mat - Same State NG 2 - JL mod - D51] (Eterna round: R96, puzzle: Same State NG 2) | 23.2 | 157 | 348 |  |  | 
AGCUAUCGAAAACGAUAGCAAAAGUAUGUACAUGAGGAUCACCCAUGUCAUGUACAAGCUUUUUGCUCGUCUUAAAA [Zipper 23 - 10] (puzzle: Sensor for hsa-mir-208a) |  |  |  | 664 | 19.6 | 638
AGCUAUCGCGUACGAUAGCUGAAGCAUGUACAUGAGGAUCACCCAUGUCAUGUACAAGCUUUUUGCUCGUCUUAUUG [JL-shm-2.26 JL mod] (puzzle: Sensor for hsa-mir-208a) |  |  |  | 341 | 14.2 | 347
AGCUAUUAAUCAGGAUAUGGUCACAUGAGGAUCACCCAUGUAUAGAUGAUAAAAUGUGGUCAAUACUAGAAGGGAUUGCUAACA [SameState NG2 #63] (Eterna round: R96, puzzle: Same State NG 2) | 433 | 266 | 386 |  |  | 
AGCUAUUAAUCAGGAUAUGGUCACAUGAGGAUCACCCAUGUAUAGAUGAUUAAAUGUGGUCUAAACUAGAAGGGAUUGCUAACA [SameState NG2 #56] (Eterna round: R96, puzzle: Same State NG 2) | 414 | 523 | 421 |  |  | 
AGCUUGUGGGUAGGAUAUUUAGGAUAUGCGGAAGACUAAGUCUGUAGGUCACCUAACGCAGAAGGAGAGAAGGACCCUUCAGCA [pwkr ssNG2 2FMN + F9.30] (Eterna round: R96, puzzle: Same State NG 2) | 353 | 21.1 | 91.3 |  |  | 
AGGAAGGAGGCUGAGGAUAUCGUAAGGAGGACAUGAGGAUCACCCAUGUGUAUAGGAUUGGAGGACGAGAAGGCAGAGGAGUGGG [JR_SS2_Sub049] (puzzle: Same State 2) |  |  |  | 49.8 | 25 | 29.4
AGGGAGGAUGCAGGAUAUAUAAGACAUGAGGAUCACCCAUGUACCUCGUGGAGAAGAAAGGAGAGAUAGAAGGGUAGAGAGGAA [Default title] (Eterna round: R96, puzzle: Same State NG 2) | 314 | 288 | 255 |  |  | 
AGUAAGAGUCAAGGAUAUGCUACCGUUUCGGUAGCAGAAGGUGAUCACAUGAGGAUCACCCAUGUAUAAAUGCGUGAGCGUGCU [JL SSNG1 3.63] (Eterna round: R96, puzzle: Same State NG 1) | 679 | 28.2 | 59 |  |  | 
AGUAGUGUAACAUGAGGAUCACCCAUGUAAGUAGAUGUAACCUAGGAUAUGGAUGAUAUGUUAGUCCAGAAGGAGGAUUGAAUA [JR_SSNG3_Sub037] (Eterna round: R96, puzzle: Same State NG 3) | 15.5 | 20.6 | 44.4 |  |  | 
AGUCCAGCAUGAGCUGGACAAAAGCAUGUACAUGAGGAUCACCCAUGUUCAUGUACAAGCUUUUUGCUCGUCAAAAG [Mat - hsa-mir-208a - Mod of JL - 70] (puzzle: Sensor for hsa-mir-208a) |  |  |  | 225 | 19.6 | 320
AGUCCAGCCUGAGCUGGACAAAAGCAUGUACAUGAGGAUCACCCAUGUCAUGUACAAGCUUUUUGCUCGUCUUGAUA [Zipper 49 - 8] (puzzle: Sensor for hsa-mir-208a) |  |  |  | 416 | 16.7 | 435
AGUCCAGCCUGAGCUGGACAAAAGCAUGUACAUGAGGAUCACCCAUGUCAUGUACAAGUUUUUUGCUCGUCUUAAAA [Zipper 46 - 11] (puzzle: Sensor for hsa-mir-208a) |  |  |  | 37.7 | 13 | 40.6
AGUCCAGCCUGAGCUGGACAAAAGCAUGUACAUGAGGAUCACCCAUGUUCAUGUACAAGCUUUUUGCUCGUCUUAGU [salish99_208a_r3_061] (puzzle: Sensor for hsa-mir-208a) |  |  |  | 481 | 15.1 | 528
AGUCCAGCCUGAGCUGGACAAAAGCAUGUACAUGAGGAUCACCCAUGUUCAUGUACAGGCUUUUUGCUCGUCUUAAA [Zipper 52 - 7] (puzzle: Sensor for hsa-mir-208a) |  |  |  | 331 | 17.8 | 488
AGUCCAGCCUGAGCUGGACAAAUGCUUGUACAUGAGGAUCACCCAUGUAUGUACAAGCUUUUUGCUCGUCUUAAUAA [JL zipper 68] (Eterna round: R96, puzzle: Sensor for hsa-mir-208a) | 263 | 18.2 | 223 |  |  | 
AGUCCAGCCUGAGCUGGACUGAAGCAUGUACAUGAGGAUCACCCAUGUUCAUGUGCAAGCUUUUUGCUCGUCUUAUG [JL-shm-2.03 JL mod] (puzzle: Sensor for hsa-mir-208a) |  |  |  | 42 | 11.5 | 41.8
AGUCCAGCGAAAGCUGGACAAAAGCAUGUACAUGAGGAUCACCCAUGUUCAUGUGCAAGCUUUUUGCUCGUCUUAAA [JL mod - D95 - 4] (puzzle: Sensor for hsa-mir-208a) |  |  |  | 49.2 | 9.36 | 58.9
